From patent US20030211540

System: T1, PKC inhibitor peptide 19-31 (Arg-Phe-Ala-Arg-Lys-Gly-Ala-Leu-Arg-Gin-Lys-Asn-Val)
T1 sequence: RFARKGALRQKNV

Protein kinase C
insulin-stimulated DNA synthesis (BrDU incorporation) under high glucose after microinjection of the peptide: partially reversed inhibition of DNA synthesis
